Experimental data reported in patent US6734286 (CELLTECH R AND D, dated 2004).

Biological target: T1, Recombinant human IL-5 (human, UniProt P05113 20-134)
T1 construct: also called human interleukin-5; hIL-5
T1 sequence (looked up): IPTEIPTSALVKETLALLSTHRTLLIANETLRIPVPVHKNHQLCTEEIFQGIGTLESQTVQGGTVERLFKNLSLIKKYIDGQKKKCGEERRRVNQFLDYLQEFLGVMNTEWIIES
Experiment: BIAcore; antibody captured by polyclonal anti-human Fc, recombinant human IL-5 as analyte
Protocol: Affinities of the chimeric and CDR grafted anti-IL-5 antibodies were determined using Biospecific Interaction Analysis (BIA). Antibodies were produced in CHO cells by transfection of combinations of heavy and light chain genes and purified from culture supernatants on Protein A Sepharose. […] The amount of anti-IL-5 captured for each run was approximately 1600 RU. Recombinant human IL-5 was then passed over the Sensorchip at various concentrations (0.6 to 5 µg/ml) in the above buffer. The Sensorchip was cleaned after each run with 100 mM HCl and 100 mM orthophosphoric acid to remove bound IL-5 and antibody. The sensorgrams generated were analysed using the kinetics software available with the BIAcore machine.

binding result: binds
B1: CTIL-5-10 gH/gL6 antibody (antibody, V domains shown)
VH: EVQLVESGGGLVQPGGSLRLSCAVSGLSLTSNSVNWIRQAPGKGLEWVGLIWSNGDTDYNSAIKSRFTISRDTSKSTVYLQMNSLRAEDTAVYYCAREYYGYFDYWGQGTLVTVSS
VL: DIQMTQSPSSLSASVGDRVTITCLASEGISSYLAWYQQKPGKAPKLLIYGANSLQTGVPSRFSGSGSATDYTLTISSLQPEDFATYYCQQSYKFPNTFGQGTKVEVKR
notes: Human constant domains; also called CTIL-5-10 gH/qL6; CDR grafted 39D10
